According to the MegaScale stability set (Tsuboyama et al. 2023):

B1: HEEH_KT_rd6_0007 (parent)
chain: SIEEEIKKAEEAKEKGKTFIHGDFVATTEELLDELLKRLRKKL

Variants of: B1
Experiment: folding stability dG (cDNA display proteolysis); higher = more stable
Settings: PBS, room temperature

Folding stability dG [kcal/mol]: each site, then its substitutions
D33: E 1.34 | P -0.325 | W 1.44 | M 1.17 | I 1.35 | R 1.37 | Y 1.28 | C 1.98 | N 1.27 | V 1.17 | K 1.23 | L 1.23 | G 0.853 | A 1.22 | T 1.1 | S 1.04 | Q 0.991 | H 1.04 | F 1.32
L32: M 0.752 | S 0.285 | Y 1.22 | Q 0.13 | T 0.441 | K 0.345 | H 0.393 | F 1.59 | G 0.372 | D 0.374 | W 0.894 | I 1.46 | E 0.247 | P 0.168 | N 0.294 | R 0.281 | A 0.414 | V 0.661 | C 0.637
L31: E 2 | D 1.52 | S 0.841 | K 0.756 | I 0.938 | T 0.882 | A 1.28 | H 1.08 | N 0.715 | R 0.535 | F 0.877 | W 0.95 | M 1.65 | G 0.74 | Q 1.75 | V 0.71 | P 0.452 | Y 0.721
E34: Q 1.17 | V 0.952 | K 1.11 | D 0.87 | P 0.383 | C 1.64 | H 1.02 | W 1.86 | S 0.84 | N 0.881 | M 1.3 | F 1.4 | G 0.737 | A 1.19 | T 1.02 | L 1.4 | Y 1.4 | I 1.36 | R 1.2
L36: A 0.394 | D -0.448
E30: C 1.63 | H 1.15 | V 0.976 | W 1.42 | Y 1.15 | I 0.954 | A 1.41 | L 1.14 | P 0.673 | D 1.17 | F 1.13 | T 1.09 | R 1.19 | Q 1.14 | G 0.9 | N 0.882 | K 1.24 | S 1.12 | M 1.05
T27: R 0.962 | L 1.22 | Q 0.865 | N 1.98 | P 0.51 | V 1.09 | G 1.08 | K 1.09 | M 1.17 | W 1.66 | Y 1.62 | S 1.57 | H 1.41 | F 1.55 | I 1.11
E29: R 1.62 | Q 1.41 | D 1.21 | T 1.55 | H 1.2 | I 1.76 | F 1.47 | C 2.15 | P 1.78 | L 1.64 | N 1.26 | W 1.78 | V 1.65 | Y 1.18 | A 1.63 | G 1.32 | M 1.63 | K 1.52 | S 1.46
T28: E 0.679 | H 0.534 | C 1.98 | I 1.31 | P 0.562 | S 1.15 | K 0.472 | R 0.557 | L 1.3 | M 1.34 | Y 0.985 | V 1.17 | N 1.09 | Q 0.473 | D 0.797 | W 1.19 | G 0.966 | A 0.936 | F 1.32
L35: W 0.882 | M 0.714 | F 0.799 | E 0.313 | D 0.12 | A 0.494 | T 0.38 | V 0.702 | S 0.043 | N 0.287 | G 0.119 | H 0.458 | I 1.15 | Y 0.817 | P -0.141 | R 0.542 | K 0.309 | Q 0.486
